Results from patent US20090269810.

B1: wild-type human ERp23 (protein)
chain: DRAPLTATAPQLDDEEMYSAHMPAHLRCDACRAVAYQMWQNLAKAETKLHTSNSGGRRELSELVYTDVLDRSCSRNWQDYGVREVDQVKRLTGPGLSEGPEPSISVMVTGGPWPTRLSRTCLHYLGEFGEDQIYEAHQQGRGALEALLCGGPQGACSEKVSATREEL
B2: human ERp23 Cys50Ser mutant (protein)
chain: DRAPLTATAPQLDDEEMYSAHMPAHLRSDACRAVAYQMWQNLAKAETKLHTSNSGGRRELSELVYTDVLDRSCSRNWQDYGVREVDQVKRLTGPGLSEGPEPSISVMVTGGPWPTRLSRTCLHYLGEFGEDQIYEAHQQGRGALEALLCGGPQGACSEKVSATREEL
B3: human ERp23 Cys178Ser mutant (protein)
chain: DRAPLTATAPQLDDEEMYSAHMPAHLRCDACRAVAYQMWQNLAKAETKLHTSNSGGRRELSELVYTDVLDRSCSRNWQDYGVREVDQVKRLTGPGLSEGPEPSISVMVTGGPWPTRLSRTCLHYLGEFGEDQIYEAHQQGRGALEALLCGGPQGASSEKVSATREEL
B4: human ERp23 Cys53Ser mutant (protein)
chain: DRAPLTATAPQLDDEEMYSAHMPAHLRCDASRAVAYQMWQNLAKAETKLHTSNSGGRRELSELVYTDVLDRSCSRNWQDYGVREVDQVKRLTGPGLSEGPEPSISVMVTGGPWPTRLSRTCLHYLGEFGEDQIYEAHQQGRGALEALLCGGPQGACSEKVSATREEL
B5: human ERp23 Cys95Ser mutant (protein)
chain: DRAPLTATAPQLDDEEMYSAHMPAHLRCDACRAVAYQMWQNLAKAETKLHTSNSGGRRELSELVYTDVLDRSSSRNWQDYGVREVDQVKRLTGPGLSEGPEPSISVMVTGGPWPTRLSRTCLHYLGEFGEDQIYEAHQQGRGALEALLCGGPQGACSEKVSATREEL
B6: human ERp23 Cys143Ser mutant (protein)
chain: DRAPLTATAPQLDDEEMYSAHMPAHLRCDACRAVAYQMWQNLAKAETKLHTSNSGGRRELSELVYTDVLDRSCSRNWQDYGVREVDQVKRLTGPGLSEGPEPSISVMVTGGPWPTRLSRTSLHYLGEFGEDQIYEAHQQGRGALEALLCGGPQGACSEKVSATREEL
B7: human ERp23 Cys171Ser mutant (protein)
chain: DRAPLTATAPQLDDEEMYSAHMPAHLRCDACRAVAYQMWQNLAKAETKLHTSNSGGRRELSELVYTDVLDRSCSRNWQDYGVREVDQVKRLTGPGLSEGPEPSISVMVTGGPWPTRLSRTCLHYLGEFGEDQIYEAHQQGRGALEALLSGGPQGACSEKVSATREEL
B8: human ERp23 Cys50-178Ser mutant (protein)
chain: DRAPLTATAPQLDDEEMYSAHMPAHLRSDACRAVAYQMWQNLAKAETKLHTSNSGGRRELSELVYTDVLDRSCSRNWQDYGVREVDQVKRLTGPGLSEGPEPSISVMVTGGPWPTRLSRTCLHYLGEFGEDQIYEAHQQGRGALEALLCGGPQGASSEKVSATREEL

target: HA-tagged mini HC (VH-CH1)

Protein	oxidation of the CH1 domain of the mini HC	percentage of the fully oxidized form of the mini HC
B1	co-expression of wild-type human ERp23 resulted in oxidation of the CH1 domain in a portion of the HC even in the absence of LC	fully oxidizes ˜24% of the mini HC
B2	–	showed a similar ability to oxidize the CH1 domain (i.e., 20%)
B3	also showed some activity, although it was slightly weaker than that observed with wild-type ERp23 or the Cys50Ser mutant	–
B4	All of the remaining single cysteine mutants had significantly reduced activity, which in most cases was similar to that observed when no ERp23 was co-expressed	–
B5	All of the remaining single cysteine mutants had significantly reduced activity, which in most cases was similar to that observed when no ERp23 was co-expressed	–
B6	All of the remaining single cysteine mutants had significantly reduced activity, which in most cases was similar to that observed when no ERp23 was co-expressed	–
B7	All of the remaining single cysteine mutants had significantly reduced activity, which in most cases was similar to that observed when no ERp23 was co-expressed	–
B8	only the Cys50-178Ser mutant still retained activity	–
